The values below come from patent publication US20240383964A1, “De Novo Designed alpha(5) beta(1) Integrin selective minibinders” (UNIVERSITY OF WASHINGTON, priority 2023, published 2024).

The star is where a group is joined. Biotin = O=C1N[C@H]2[C@H](CS[C@H]2CCCCC(=O)*)N1

In assay [1] the target is T1, integrin α8β1 (UniProt P53708 39-1012; P05556 21-728).
T1 construct: also called a8b1
The assay is described as follows: BLI (Octet), minibinder on the sensor, integrin α8β1 in solution [panel α8β1]. As for the experimental part:
(§1) Because of the large size of integrin and the distribution of integrin α5β1 on the cell surface, it was of interest to measure the affinity of the binders on the cell surface. Using wild type A562, the binding affinity of binders to α5β1 was measured, which is the only RGD binding integrin expressed in WT A562.
(§2) Prior to measurements, streptavidin-coated biosensors were first equilibrated for at least 10 min in assay buffer. Protein binders with an N-terminal biotin were immobilized onto the biosensors by dipping them into a solution with 100 nM protein until the response reached between 10% and 50% of the maximum value followed by dipping sensors into fresh buffer to establish a baseline for 120 s. Titration experiments were performed at 25 degrees Celsius while rotating at 1000 rpm. Association of integrins was allowed by dipping biosensors in solutions containing designed protein diluted in buffer until equilibrium was approached followed by dissociation by dipping the biosensors into fresh buffer solution to monitor the dissociation kinetics. In the minibinder binding cross specificity assays each biotinylated minibinder was loaded onto streptavidin biosensors in equal amounts followed by 2 min of baseline equilibration. The association and dissociation with all the different binders were allowed for 900-1500 s for each step. […]

For assay [2], the target named is T2, integrin αvβ1 (UniProt P06756 31-992; P05556 21-728).
T2 construct: also called avb1
Briefly: BLI (Octet), minibinder on the sensor, integrin αvβ1 in solution [panel αvβ1]. As for the experimental part: as §1, §2

Assay [3] addresses T3, integrin αvβ3 (UniProt P06756 31-992; P05106 27-718).
T3 construct: also called avb3
Briefly: BLI (Octet), minibinder on the sensor, integrin αvβ3 in solution [panel αvβ3]. As for the experimental part: as §1, §2

Assay [4] deals with T4, integrin αvβ8 (UniProt P06756 31-992; P26012 43-684).
T4 construct: also called avb8
The assay is described as follows: BLI (Octet), minibinder on the sensor, integrin αvβ8 in solution [panel αvβ8]. Here is the method:
as §1, §2

The target in assay [5] is T5, integrin α5β1 on the cell surface (UniProt P08648 42-1049; P05556 21-798).
T5 construct: whole, on cells; HUVECs in the functional assays; also called α5β1 on wild type K562 (printed also A562) cells; α5β1 on HUVECs
The assay is described as follows: cell surface titration on wild type K562 cells, readout Binder Bound Cells (%).

Assay [6] deals with T6, integrin α5β1 (UniProt P08648 42-995; P05556 21-728).
T6 construct: also called alpha(5) beta(1) integrin; a5b1
Briefly: BLI, integrin resting buffer (1 mM MgCl2, 1 mM CaCl2, pH 7.4), binder immobilised; BLI, integrin resting buffer pH 7.4 with 1 mM MgCl2, 1 mM CaCl2. As for the experimental part:
(§3) The binding affinity of each variant was calculated as described in Cao et al, 2022. By combining the beneficial mutations, combination libraries were constructed and screened for binding to α5β1 at an affinity as low as 200 pico-molar (FIG. 4). […] Because RGD binding depends on metal ions, the binders were tested for binding to integrin without metal ions. […] Similarly, mutating the RGD motif to GGG also abolished the binding ability. […] This is surprising, and provides a tool to track integrin α5β1 in endosome and lysosome.
(§4) Prior to measurements, streptavidin-coated biosensors were first equilibrated for at least 10 min in assay buffer. Protein binders with an N-terminal biotin were immobilized onto the biosensors by dipping them into a solution with 100 nM protein until the response reached between 10% and 50% of the maximum value followed by dipping sensors into fresh buffer to establish a baseline for 120 s. Titration experiments were performed at 25 degrees Celsius while rotating at 1000 rpm. Association of integrins was allowed by dipping biosensors in solutions containing designed protein diluted in buffer until equilibrium was approached followed by dissociation by dipping the biosensors into fresh buffer solution to monitor the dissociation kinetics.

For assay [7], the target named is T6, integrin α5β1. The assay is described as follows: BLI (Octet), minibinder on the sensor, integrin α5β1 in solution at labelled concentrations up to 200 nM; buffer 1 mM Ca2+, 1 mM Mg2+, pH 5 [lower left panel]. Here is the method:
as §3, §4

The target in assay [8] is T6, integrin α5β1. Briefly: BLI (Octet), 00179_v4.1 RGD→GGG on the sensor, integrin α5β1 in solution; 1 mM Ca2+, 1 mM Mg2+, pH 7.4 [lower right panel]. As for the experimental part: as §3, §4
Assay [9] deals with HUVECs. The assay is described as follows: Scratch-wound cell migration assay. Type of assay: cell-based, human. Particulars: 20 nM, 12 hours, compared to PBS control. As for the experimental part:
FIG. 2. (A) BLI binding affinity traces for minibinder or ^8RGD^10/GGG mutant against α5β1 in indicated buffers. Minibinder affinity to integrin α5β1 is dependent on metal ion presence and RGD motif. All affinity data was collected by Octet™ R8 and binding affinity was estimated by the Octet™ ForteBio software package. (B) Minibinder has no detectable affinity in presence of 500 nM or 1000 nM integrin αvβ1, αvβ3, αvβ6, αvβ8 and α8β1. (C) Cell surface titration of minibinder 4584_V5.3 and 00179_v4.1 against K562 cells wild type. […] Integrin α5 subunit and β1 subunit were stained with integrin α5 and active integrin β1 subunit specific antibody, respectively. (E) Quantification of (D). Quantification was counted as a percentage of mb-sheets that colocalized with staining of a5 and b1, a5 only, b1 only, or none; 30-35 sheets were counted in each biological repeat. […] Minibinders were added to HUVEC cells at 0, 0.1, 1, 10, and 100 nM. Vascular stability was analyzed at 12-h timepoints. 20 images were taken in each well at random locations. The scale bar is 100 μm. (G) Quantification of (F). The number of nodes, meshes, and tubes from images in (F) were quantified using an angiogenesis analyzer plug-in in ImageJ. Statistical significance of each were analyzed using One-way Anova Bonferroni's multiple comparison test. […] The wound area of T0 and T12 time points were quantified using imageJ and level of cell migration were calculated using this equation (AreaT0-T12)/AreaT0, all samples were normalized to PBS as fold change.
The inhibitory effect of 20 nM soluble 00179_v4.1 on cell migration was assessed using the scratch-wound assay. HUVECs were seeded with either 00179_v4.1 or PBS (used as a […] control) for 12 hours before capturing images for analysis.

T6 sequence (P08648 42-995, chain 1 of 2): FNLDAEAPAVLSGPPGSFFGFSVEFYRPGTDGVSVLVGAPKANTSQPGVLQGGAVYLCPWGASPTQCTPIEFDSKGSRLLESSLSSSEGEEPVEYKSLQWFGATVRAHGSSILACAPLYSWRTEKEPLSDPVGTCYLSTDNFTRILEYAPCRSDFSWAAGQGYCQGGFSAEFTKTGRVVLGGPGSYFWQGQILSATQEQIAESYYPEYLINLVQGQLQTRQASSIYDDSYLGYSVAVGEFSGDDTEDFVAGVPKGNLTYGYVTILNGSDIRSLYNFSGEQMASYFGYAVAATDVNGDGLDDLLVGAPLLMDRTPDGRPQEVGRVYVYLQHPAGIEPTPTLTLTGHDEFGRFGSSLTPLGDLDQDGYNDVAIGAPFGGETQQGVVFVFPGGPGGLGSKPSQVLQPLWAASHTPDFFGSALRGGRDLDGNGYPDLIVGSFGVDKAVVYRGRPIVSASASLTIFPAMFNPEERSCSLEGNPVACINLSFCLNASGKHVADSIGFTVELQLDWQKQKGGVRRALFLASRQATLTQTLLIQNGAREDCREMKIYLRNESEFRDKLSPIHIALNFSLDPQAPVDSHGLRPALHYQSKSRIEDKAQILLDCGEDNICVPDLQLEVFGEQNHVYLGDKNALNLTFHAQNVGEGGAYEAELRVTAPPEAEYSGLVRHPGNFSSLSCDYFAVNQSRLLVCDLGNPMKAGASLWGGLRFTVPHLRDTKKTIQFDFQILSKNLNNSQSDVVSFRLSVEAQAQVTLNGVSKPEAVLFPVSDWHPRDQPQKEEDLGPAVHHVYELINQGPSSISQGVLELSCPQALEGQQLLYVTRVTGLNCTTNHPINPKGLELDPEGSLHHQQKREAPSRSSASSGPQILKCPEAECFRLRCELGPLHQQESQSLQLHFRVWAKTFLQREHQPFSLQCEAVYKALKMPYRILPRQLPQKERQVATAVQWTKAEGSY
T6 sequence (P05556 21-728, chain 2 of 2): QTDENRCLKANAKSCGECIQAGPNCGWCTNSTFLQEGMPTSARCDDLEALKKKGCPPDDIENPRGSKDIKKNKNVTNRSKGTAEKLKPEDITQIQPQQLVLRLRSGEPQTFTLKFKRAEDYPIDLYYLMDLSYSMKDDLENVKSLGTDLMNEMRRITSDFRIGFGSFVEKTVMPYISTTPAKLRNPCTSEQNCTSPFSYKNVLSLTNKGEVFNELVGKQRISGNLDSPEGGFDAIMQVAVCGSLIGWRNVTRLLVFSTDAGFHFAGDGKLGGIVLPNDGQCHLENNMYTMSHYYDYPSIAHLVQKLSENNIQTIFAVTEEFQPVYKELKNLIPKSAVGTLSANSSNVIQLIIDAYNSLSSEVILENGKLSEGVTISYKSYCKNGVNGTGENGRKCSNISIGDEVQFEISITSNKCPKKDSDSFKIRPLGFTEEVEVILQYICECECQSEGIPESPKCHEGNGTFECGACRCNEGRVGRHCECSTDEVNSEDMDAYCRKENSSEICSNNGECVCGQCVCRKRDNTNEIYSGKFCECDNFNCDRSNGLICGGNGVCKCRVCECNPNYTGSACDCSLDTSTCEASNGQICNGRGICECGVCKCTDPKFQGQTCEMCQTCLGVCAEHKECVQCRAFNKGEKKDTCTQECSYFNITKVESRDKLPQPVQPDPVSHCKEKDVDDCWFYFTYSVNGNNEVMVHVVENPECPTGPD
T5 sequence (P08648 42-1049, chain 1 of 2): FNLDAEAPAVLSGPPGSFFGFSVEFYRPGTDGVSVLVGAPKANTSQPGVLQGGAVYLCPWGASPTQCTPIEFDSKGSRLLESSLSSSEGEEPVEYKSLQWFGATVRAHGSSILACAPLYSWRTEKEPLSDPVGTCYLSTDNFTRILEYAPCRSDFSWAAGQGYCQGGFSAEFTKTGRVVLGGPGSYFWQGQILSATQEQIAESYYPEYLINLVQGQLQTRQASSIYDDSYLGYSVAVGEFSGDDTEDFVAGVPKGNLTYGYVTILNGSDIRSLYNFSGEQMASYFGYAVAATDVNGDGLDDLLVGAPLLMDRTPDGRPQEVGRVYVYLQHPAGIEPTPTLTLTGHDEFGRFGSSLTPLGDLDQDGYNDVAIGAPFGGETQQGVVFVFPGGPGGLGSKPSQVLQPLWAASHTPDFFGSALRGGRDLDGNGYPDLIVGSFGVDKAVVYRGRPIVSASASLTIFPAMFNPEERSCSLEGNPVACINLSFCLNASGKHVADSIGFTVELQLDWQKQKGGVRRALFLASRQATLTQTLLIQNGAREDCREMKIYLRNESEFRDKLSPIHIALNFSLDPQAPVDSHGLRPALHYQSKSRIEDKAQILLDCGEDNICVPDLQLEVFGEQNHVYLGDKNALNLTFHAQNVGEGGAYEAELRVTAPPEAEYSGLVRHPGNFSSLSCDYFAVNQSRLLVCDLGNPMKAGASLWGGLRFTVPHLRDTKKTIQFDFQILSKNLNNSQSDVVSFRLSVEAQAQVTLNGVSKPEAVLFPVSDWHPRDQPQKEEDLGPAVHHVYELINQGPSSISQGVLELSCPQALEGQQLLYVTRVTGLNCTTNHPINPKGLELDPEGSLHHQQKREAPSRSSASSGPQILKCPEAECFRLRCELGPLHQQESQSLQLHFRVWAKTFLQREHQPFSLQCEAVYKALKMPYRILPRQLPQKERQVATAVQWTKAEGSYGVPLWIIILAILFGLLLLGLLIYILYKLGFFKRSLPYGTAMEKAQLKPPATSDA
T5 sequence (P05556 21-798, chain 2 of 2): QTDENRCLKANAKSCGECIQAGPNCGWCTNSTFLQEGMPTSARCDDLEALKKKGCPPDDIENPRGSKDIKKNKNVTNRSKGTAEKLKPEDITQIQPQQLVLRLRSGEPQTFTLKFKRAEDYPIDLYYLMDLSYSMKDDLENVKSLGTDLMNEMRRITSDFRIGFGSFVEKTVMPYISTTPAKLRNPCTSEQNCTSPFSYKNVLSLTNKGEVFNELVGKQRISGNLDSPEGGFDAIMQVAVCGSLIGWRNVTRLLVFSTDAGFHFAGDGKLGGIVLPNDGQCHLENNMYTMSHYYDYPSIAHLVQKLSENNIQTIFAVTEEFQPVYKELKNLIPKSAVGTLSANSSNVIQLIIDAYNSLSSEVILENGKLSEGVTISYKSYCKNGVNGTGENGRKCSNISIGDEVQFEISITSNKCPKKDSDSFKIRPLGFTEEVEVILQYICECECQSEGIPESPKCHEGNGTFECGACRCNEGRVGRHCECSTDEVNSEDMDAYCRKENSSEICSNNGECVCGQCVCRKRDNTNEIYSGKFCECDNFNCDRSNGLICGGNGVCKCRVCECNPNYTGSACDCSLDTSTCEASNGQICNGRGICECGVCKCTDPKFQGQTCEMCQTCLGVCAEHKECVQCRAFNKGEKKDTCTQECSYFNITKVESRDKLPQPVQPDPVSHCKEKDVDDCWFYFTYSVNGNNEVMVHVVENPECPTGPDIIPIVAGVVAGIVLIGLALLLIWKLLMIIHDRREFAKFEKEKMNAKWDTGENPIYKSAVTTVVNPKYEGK
T4 sequence (P06756 31-992, chain 1 of 2): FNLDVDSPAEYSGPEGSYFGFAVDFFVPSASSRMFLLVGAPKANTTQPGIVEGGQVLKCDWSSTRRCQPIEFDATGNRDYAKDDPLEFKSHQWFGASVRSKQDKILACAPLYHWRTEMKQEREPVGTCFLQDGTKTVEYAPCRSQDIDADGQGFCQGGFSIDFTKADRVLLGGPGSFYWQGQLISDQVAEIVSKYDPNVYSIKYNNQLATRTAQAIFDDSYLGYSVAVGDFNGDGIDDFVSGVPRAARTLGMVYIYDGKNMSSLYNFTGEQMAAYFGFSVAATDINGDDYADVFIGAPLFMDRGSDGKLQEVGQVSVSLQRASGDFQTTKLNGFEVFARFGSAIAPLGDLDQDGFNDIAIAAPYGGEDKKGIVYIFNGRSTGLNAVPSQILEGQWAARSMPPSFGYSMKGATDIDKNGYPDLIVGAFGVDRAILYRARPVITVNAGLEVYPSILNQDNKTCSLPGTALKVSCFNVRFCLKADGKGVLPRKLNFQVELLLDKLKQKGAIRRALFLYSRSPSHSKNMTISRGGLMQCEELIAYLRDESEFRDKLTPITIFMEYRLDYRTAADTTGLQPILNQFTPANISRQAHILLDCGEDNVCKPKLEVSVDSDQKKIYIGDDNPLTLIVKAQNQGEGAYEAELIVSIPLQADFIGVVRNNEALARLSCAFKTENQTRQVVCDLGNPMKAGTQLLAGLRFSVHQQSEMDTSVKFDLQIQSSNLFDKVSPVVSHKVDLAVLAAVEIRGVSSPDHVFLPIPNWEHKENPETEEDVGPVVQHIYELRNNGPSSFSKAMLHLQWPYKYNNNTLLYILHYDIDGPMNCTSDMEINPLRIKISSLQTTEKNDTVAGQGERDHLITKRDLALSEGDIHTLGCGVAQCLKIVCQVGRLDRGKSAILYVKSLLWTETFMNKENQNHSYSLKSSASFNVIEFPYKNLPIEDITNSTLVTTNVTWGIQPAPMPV
T4 sequence (P26012 43-684, chain 2 of 2): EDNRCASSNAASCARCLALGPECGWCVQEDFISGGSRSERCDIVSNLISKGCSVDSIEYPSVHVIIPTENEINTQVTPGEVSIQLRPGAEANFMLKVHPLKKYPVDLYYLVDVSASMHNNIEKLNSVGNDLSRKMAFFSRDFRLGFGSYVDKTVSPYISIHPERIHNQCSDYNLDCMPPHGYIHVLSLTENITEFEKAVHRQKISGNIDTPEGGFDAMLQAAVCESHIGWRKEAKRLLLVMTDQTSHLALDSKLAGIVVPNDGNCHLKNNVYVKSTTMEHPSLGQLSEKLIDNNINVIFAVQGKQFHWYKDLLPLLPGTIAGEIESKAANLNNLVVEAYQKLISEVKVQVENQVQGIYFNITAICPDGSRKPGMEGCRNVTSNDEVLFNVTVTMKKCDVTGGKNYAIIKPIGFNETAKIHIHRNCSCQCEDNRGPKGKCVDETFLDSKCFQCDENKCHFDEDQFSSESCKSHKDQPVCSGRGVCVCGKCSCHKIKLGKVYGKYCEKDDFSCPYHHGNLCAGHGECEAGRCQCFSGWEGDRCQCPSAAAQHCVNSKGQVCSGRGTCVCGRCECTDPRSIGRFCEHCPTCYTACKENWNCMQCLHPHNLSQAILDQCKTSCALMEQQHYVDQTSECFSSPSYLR

B1: xw_a5b1_00179_v4.1 (designed binder)
chain: SELIIHGRGDFPSSELERLRERFERLGIKVRVDHKVLTLIGISEEEAERLARELRKRGIWVEIRK
modifications: also: N-terminal avi-tag/biotin for BLI, His6 tag at N- or C-terminus, tag sequences not given here
notes: a His6 tag stood at the N- or C-terminus
B1: the binding result in assay [1], in assay [2], in [3] and in assay [4] was “no binding (tested: 500 nM)” throughout. The “EC50 (read off the curve)” value in assay [5] is approximately 2 nM. Besides, the Kd in [6] worked out at 0.3 nM; in assay [7], 40 nM.

B2: 8RGD10/GGG mutant of minibinder 00179_v4.1 (designed binder)
chain: Biotin-SELIIHGGGGFPSSELERLRERFERLGIKVRVDHKVLTLIGISEEEAERLARELRKRGIWVEIRK
notes: also called RGD/GGG mutant
On to B2, for which the binding result in assay [8] is listed as “no binding (tested: 1000 nM)”.

B3: xw_a5b1_004584v5.3 (designed binder)
chain: GEVEVHGRGDIPRSSLELFEKVAKELGLKVERNHRTVTVKGVSEEQIRELEEVAKKLGLWVLVRVTE
notes: Tags of the construct as assayed are not specified
B3: the binding result in assay [5] is recorded as “binds”.

B4: C6-mb: hexamer formed by mixing 00179_v4.1_N-term-LHD101A (SEQ ID NO:16) and C6-71-9-1_101B (SEQ ID NO:17) at 6:1 ratio (protein)
chain 1: MSGRQEKVLKSIEETVRKMGVTMETHRSGNEVKVVIKGLHIKQQRQLYRDVRETSKKQGVETEIEVEGDTVTIVVREGGSGGSELIIHGRGDFPRSELERLRERFERLGIKVRVDHKVLTLIGISEEEAERLARELRKRGIWVEIRKGSGSHHWGSTHHHHHH
chain 2: MGRQEKVLKSIEETVRKMGVTMETHRSGNEVKVVIKGLHESQQEQLLEDVLRTAEKQGVRVRIRFKGDTVTIVVREGSPEEILERAKESLERAKEAFERGDEEEFRKAAEKALELAKRLVEQAKKEGDPELVFEAARVALWVAWLAAWFGDKEVFKKAAESALEVAKRLVEVAKEEGDPELVLKAAFVALLVAIMAVILGDKEVFKKAAESALEVAKRLVEIAAREGDPELVEEAAKVAELVRELAKLMGDEEVYEKARETAREVRLFLLFVRIWEGGGGSLEHHHHHH
modifications: 6:1 hexameric assembly; VARIANT 1 optionally absent; VARIANT 148..163 optionally absent; VARIANT 282..289 optionally absent
As to B4, the cell migration entry in [9] is recorded as “even more pronounced inhibition of cell migration”; in [9] (listed as C6-oligomer), “inhibits cell migration”.
